Laboratory results from patent publication US20150023967A1 (published 2015).

How the values were obtained:
BCMA 101 x CD3 = experiment: SPR (Biacore)
BCMA 102 x CD3 = experiment: SPR (Biacore)

B1: Human BCMA (other)
chain (part 1 of 2): MLQMAGQCSQNEYFDSLLHACIPCQLRCSSNTPPLTCQRYCNASVTNSVKGTNASGGGGSEAHKSEIAHRYNDLGEQHFKGLVLIAFSQYLQKCSYDEHAKLVQEVTDFAKTCVADESAANCDKSLHTLFGDKLCAIPNLRENYGELADCCTKQEPERNECFLQHKDDNPSLPPFERPEAEAMCTSFKENPTTFMGHYLHEVARRHPYFYAPELLYYAEQYNEILTQCCAEADKESCLTPKLDGVKEKALVSSVRQRMKCSSMQKFGERAFKAWAVARLSQTFPNADFAEITKLATDLTKVNKECCHGDLLECADDRAELAKYMCENQATISSKLQTCCDKPLLKKAHCLSEVEHDTMPADLPAIAADFVEDQEVCKNYAEAKDVFLGTFLYEYSRRHPDYSVSLLLRLAKKYEATLEKCCAEANPPACYGTVLAEFQPLVEEPKNLVKTNCDLYEKLGEYGFQNAILVRYTQKAPQVSTPTLVEAARNLGRVGTKCCTLPEDQRLPCVEDYLSAILNRVCLLHEKTPVSEHVTKCCSGSLVERRPCFSALTVDETYVPKEFKAETFTFHSDICTLPEKEKQIKKQTALAELVKHKPKATAEQLKTVMDDFAQFLDTCCKAADKDTCFSTEGPNLVTRCKDALA
chain (part 2 of 2): SGHHGGHHGGHH
B1 showed a Kd (BCMA 101 x CD3) of 0.5 nM and a Kd (BCMA 102 x CD3) of 0.6 nM.
